T1: human interleukin-23 receptor (IL23R) (human, UniProt Q5VWK5 24-355, limits assumed)
T1 construct: also called human IL23R
T1 sequence (looked up): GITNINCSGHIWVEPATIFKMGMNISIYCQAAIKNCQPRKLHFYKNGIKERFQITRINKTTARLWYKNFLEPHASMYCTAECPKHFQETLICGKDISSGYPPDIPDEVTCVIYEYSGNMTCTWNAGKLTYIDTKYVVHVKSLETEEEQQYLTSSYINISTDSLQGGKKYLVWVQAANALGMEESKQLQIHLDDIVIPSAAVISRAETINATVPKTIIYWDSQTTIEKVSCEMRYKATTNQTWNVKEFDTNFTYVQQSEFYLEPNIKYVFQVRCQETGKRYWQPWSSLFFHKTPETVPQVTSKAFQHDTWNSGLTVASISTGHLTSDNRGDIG


Key:
[1] = target: T1, human interleukin-23 receptor (IL23R); assay: SPR, scFv
Summary of the method: (§1)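 Affinity values for human IL23R come from surface plasmon resonance, expressed as rate constants and dissociation constant or as the λ-capped to uncapped dissociation-constant ratio. The tested molecules were humanized rabbit scFv on consensus germline framework pairs, either uncapped or with Vκ framework IV replaced by a Vλ germline sequence (λ-cap), refolded from E. coli inclusion bodies.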

[2] = target: T1, human interleukin-23 receptor (IL23R); assay: SPR, scFv (summary table)
Summary of the method: as §1

Row | Binder | Kd [1] | koff [1] | kon [1] | Kd [2]
1 | Vκ3/VH6 consensus λ-capped, human IL23R specific scFv (scFv, scFv VL-linker-VH, made in E. coli; also called Vκ3VH6 capped) scFv: DIVLTQSPATLSLSPGERATLSCQASENIYSFLAWYQQKPGQAPRLLIYSASKLAAGVPARFSGSGSGTDFTLTISSLEPEDFAVYYCQQTNRYSNPDIYNVFGGGTKLTVLGGGGGSGGGGSGGGGSGGGGSQVQLQQSGPGLVKPSQTLSLTCAISGIDFNSNYYMCWIRQSPGRGLEWLGCIYVGSHVNTYYANWAKGRITINPDTSKNQFSLQLNSVTPEDTAVYYCATSGSSVLYFKFWGQGTLVTVSS | 0.394 nM | 0.000563 s⁻¹ | 1.43e+06 M⁻¹ s⁻¹ | 0.394 nM
2 | Vκ2/VH2 consensus λ-capped, human IL23R specific scFv (scFv, scFv VL-linker-VH, made in E. coli; also called Vκ2VH2 capped) scFv: DIVMTQSPLSLPVTPGEPASISCQASENIYSFLAWYLQKPGQSPQLLIYSASKLAAGVPDRFSGSGSGTDFTLKISRVEAEDVGVYYCQQTNRYSNPDIYNVFGGGTKLTVLGGGGGSGGGGSGGGGSGGGGSQVQLKESGPALVKPTQTLTLTCTFSGIDFNSNYYMCWIRQPPGKALEWLACIYVGSHVNTYYANWAKGRLTISKDTSKNQVVLTMTNMDPVDTATYYCATSGSSVLYFKFWGQGTLVTVSS | 0.0741 nM | 0.000102 s⁻¹ | 1.38e+06 M⁻¹ s⁻¹ | 0.0741 nM
3 | Vκ1/VH3 consensus (uncapped), human IL23R specific scFv (scFv, scFv VL-linker-VH, made in E. coli; Vκ framework IV (uncapped, full consensus); also called Vκ1VH3 uncapped) scFv: DIQMTQSPSSLSASVGDRVTITCQASENIYSFLAWYQQKPGKAPKLLIYSASKLAAGVPSRFSGSGSGTDFTLTISSLQPEDFATYYCQQTNRYSNPDIYNVFGQGTKVEIKRGGGGSGGGGSGGGGSGGGGSEVQLVESGGGLVQPGGSLRLSCAASGIDFNSNYYMCWVRQAPGKGLEWVSCIYVGSHVNTYYANWAKGRFTISRDNSKNTLYLQMNSLRAEDTAVYYCATSGSSVLYFKFWGQGTLVTVSS | 0.0347 nM | 5.28e-05 s⁻¹ | 1.52e+06 M⁻¹ s⁻¹ | 0.0347 nM
4 | Vκ1/VH1A consensus (uncapped), human IL23R specific scFv (scFv, scFv VL-linker-VH, made in E. coli; Vκ framework IV (uncapped, full consensus); also called Vκ1VH1A uncapped) scFv: DIQMTQSPSSLSASVGDRVTITCQASENIYSFLAWYQQKPGKAPKLLIYSASKLAAGVPSRFSGSGSGTDFTLTISSLQPEDFATYYCQQTNRYSNPDIYNVFGQGTKVEIKRGGGGSGGGGSGGGGSGGGGSQVQLVQSGAEVKKPGSSVKVSCKASGIDFNSNYYMCWVRQAPGQGLEWMGCIYVGSHVNTYYANWAKGRVTITADESTSTAYMELSSLRSEDTAVYYCATSGSSVLYFKFWGQGTLVTVSS | 0.02 nM | 0.000128 s⁻¹ | 6.42e+06 M⁻¹ s⁻¹ | 0.02 nM
5 | Vκ1/VH1B consensus (uncapped), human IL23R specific scFv (scFv, scFv VL-linker-VH, made in E. coli; Vκ framework IV (uncapped, full consensus); also called Vκ1VH1B uncapped) scFv: DIQMTQSPSSLSASVGDRVTITCQASENIYSFLAWYQQKPGKAPKLLIYSASKLAAGVPSRFSGSGSGTDFTLTISSLQPEDFATYYCQQTNRYSNPDIYNVFGQGTKVEIKRGGGGSGGGGSGGGGSGGGGSQVQLVQSGAEVKKPGASVKVSCKASGIDFNSNYYMCWVRQAPGQGLEWMGCIYVGSHVNTYYANWAKGRVTMTRDTSISTAYMELSSLRSEDTAVYYCATSGSSVLYFKFWGQGTLVTVSS | 0.168 nM | 0.000413 s⁻¹ | 2.45e+06 M⁻¹ s⁻¹ | 0.168 nM
6 | Vκ2/VH3 consensus (uncapped), human IL23R specific scFv (scFv, scFv VL-linker-VH, made in E. coli; Vκ framework IV (uncapped, full consensus); also called Vκ2VH3 uncapped) scFv: DIVMTQSPLSLPVTPGEPASISCQASENIYSFLAWYLQKPGQSPQLLIYSASKLAAGVPDRFSGSGSGTDFTLKISRVEAEDVGVYYCQQTNRYSNPDIYNVFGQGTKVEIKRGGGGSGGGGSGGGGSGGGGSEVQLVESGGGLVQPGGSLRLSCAASGIDFNSNYYMCWVRQAPGKGLEWVSCIYVGSHVNTYYANWAKGRFTISRDNSKNTLYLQMNSLRAEDTAVYYCATSGSSVLYFKFWGQGTLVTVSS | 0.0236 nM | 4.3e-05 s⁻¹ | 1.82e+06 M⁻¹ s⁻¹ | 0.0236 nM
7 | Vκ1/VH4 consensus (uncapped), human IL23R specific scFv (scFv, scFv VL-linker-VH, made in E. coli; Vκ framework IV (uncapped, full consensus); also called Vκ1VH4 uncapped) scFv: DIQMTQSPSSLSASVGDRVTITCQASENIYSFLAWYQQKPGKAPKLLIYSASKLAAGVPSRFSGSGSGTDFTLTISSLQPEDFATYYCQQTNRYSNPDIYNVFGQGTKVEIKRGGGGSGGGGSGGGGSGGGGSQVQLQESGPGLVKPSETLSLTCTVSGIDFNSNYYMCWIRQPPGKGLEWIGCIYVGSHVNTYYANWAKGRVTISVDTSKNQFSLKLSSVTAADTAVYYCATSGSSVLYFKFWGQGTLVTVSS | 0.0991 nM | 0.000176 s⁻¹ | 1.78e+06 M⁻¹ s⁻¹ | 0.0991 nM
8 | Vκ1/VH6 consensus (uncapped), human IL23R specific scFv (scFv, scFv VL-linker-VH, made in E. coli; Vκ framework IV (uncapped, full consensus); also called Vκ1VH6 uncapped) scFv: DIQMTQSPSSLSASVGDRVTITCQASENIYSFLAWYQQKPGKAPKLLIYSASKLAAGVPSRFSGSGSGTDFTLTISSLQPEDFATYYCQQTNRYSNPDIYNVFGQGTKVEIKRGGGGSGGGGSGGGGSGGGGSQVQLQQSGPGLVKPSQTLSLTCAISGIDFNSNYYMCWIRQSPGRGLEWLGCIYVGSHVNTYYANWAKGRITINPDTSKNQFSLQLNSVTPEDTAVYYCATSGSSVLYFKFWGQGTLVTVSS | 0.251 nM | 0.000309 s⁻¹ | 1.23e+06 M⁻¹ s⁻¹ | 0.251 nM
9 | Vκ2/VH1A consensus (uncapped), human IL23R specific scFv (scFv, scFv VL-linker-VH, made in E. coli; Vκ framework IV (uncapped, full consensus); also called Vκ2VH1A uncapped) scFv: DIVMTQSPLSLPVTPGEPASISCQASENIYSFLAWYLQKPGQSPQLLIYSASKLAAGVPDRFSGSGSGTDFTLKISRVEAEDVGVYYCQQTNRYSNPDIYNVFGQGTKVEIKRGGGGSGGGGSGGGGSGGGGSQVQLVQSGAEVKKPGSSVKVSCKASGIDFNSNYYMCWVRQAPGQGLEWMGCIYVGSHVNTYYANWAKGRVTITADESTSTAYMELSSLRSEDTAVYYCATSGSSVLYFKFWGQGTLVTVSS | 0.222 nM | 0.000279 s⁻¹ | 1.26e+06 M⁻¹ s⁻¹ | 0.222 nM
10 | Vκ2/VH1B consensus λ-capped, human IL23R specific scFv (scFv, scFv VL-linker-VH, made in E. coli; also called Vκ2VH1B capped) scFv: DIVMTQSPLSLPVTPGEPASISCQASENIYSFLAWYLQKPGQSPQLLIYSASKLAAGVPDRFSGSGSGTDFTLKISRVEAEDVGVYYCQQTNRYSNPDIYNVFGGGTKLTVLGGGGGSGGGGSGGGGSGGGGSQVQLVQSGAEVKKPGASVKVSCKASGIDFNSNYYMCWVRQAPGQGLEWMGCIYVGSHVNTYYANWAKGRVTMTRDTSISTAYMELSSLRSEDTAVYYCATSGSSVLYFKFWGQGTLVTVSS | 0.143 nM | 0.000326 s⁻¹ | 2.29e+06 M⁻¹ s⁻¹ | 0.143 nM
11 | Vκ3/VH3 consensus (uncapped), human IL23R specific scFv (scFv, scFv VL-linker-VH, made in E. coli; Vκ framework IV (uncapped, full consensus); also called Vκ3VH3 uncapped) scFv: DIVLTQSPATLSLSPGERATLSCQASENIYSFLAWYQQKPGQAPRLLIYSASKLAAGVPARFSGSGSGTDFTLTISSLEPEDFAVYYCQQTNRYSNPDIYNVFGQGTKVEIKRGGGGSGGGGSGGGGSGGGGSEVQLVESGGGLVQPGGSLRLSCAASGIDFNSNYYMCWVRQAPGKGLEWVSCIYVGSHVNTYYANWAKGRFTISRDNSKNTLYLQMNSLRAEDTAVYYCATSGSSVLYFKFWGQGTLVTVSS | 0.0395 nM | 6.52e-05 s⁻¹ | 1.65e+06 M⁻¹ s⁻¹ | 0.0395 nM
12 | Vκ3/VH5 consensus (uncapped), human IL23R specific scFv (scFv, scFv VL-linker-VH, made in E. coli; Vκ framework IV (uncapped, full consensus); also called Vκ3VH5 uncapped) scFv: DIVLTQSPATLSLSPGERATLSCQASENIYSFLAWYQQKPGQAPRLLIYSASKLAAGVPARFSGSGSGTDFTLTISSLEPEDFAVYYCQQTNRYSNPDIYNVFGQGTKVEIKRGGGGSGGGGSGGGGSGGGGSEVQLVQSGAEVKKPGESLKISCKGSGIDFNSNYYMCWVRQMPGKGLEWMGCIYVGSHVNTYYANWAKGQVTISADKSISTAYLQWSSLKASDTAMYYCATSGSSVLYFKFWGQGTLVTVSS | 0.525 nM | 0.000904 s⁻¹ | 1.72e+06 M⁻¹ s⁻¹ | 0.525 nM
13 | Vκ1/VH2 consensus (uncapped), human IL23R specific scFv (scFv, scFv VL-linker-VH, made in E. coli; Vκ framework IV (uncapped, full consensus); also called Vκ1VH2 uncapped) scFv: DIQMTQSPSSLSASVGDRVTITCQASENIYSFLAWYQQKPGKAPKLLIYSASKLAAGVPSRFSGSGSGTDFTLTISSLQPEDFATYYCQQTNRYSNPDIYNVFGQGTKVEIKRGGGGSGGGGSGGGGSGGGGSQVQLKESGPALVKPTQTLTLTCTFSGIDFNSNYYMCWIRQPPGKALEWLACIYVGSHVNTYYANWAKGRLTISKDTSKNQVVLTMTNMDPVDTATYYCATSGSSVLYFKFWGQGTLVTVSS | 0.211 nM | 0.000333 s⁻¹ | 1.58e+06 M⁻¹ s⁻¹ | 0.211 nM
14 | Vκ1/VH5 consensus (uncapped), human IL23R specific scFv (scFv, scFv VL-linker-VH, made in E. coli; Vκ framework IV (uncapped, full consensus); also called Vκ1VH5 uncapped) scFv: DIQMTQSPSSLSASVGDRVTITCQASENIYSFLAWYQQKPGKAPKLLIYSASKLAAGVPSRFSGSGSGTDFTLTISSLQPEDFATYYCQQTNRYSNPDIYNVFGQGTKVEIKRGGGGSGGGGSGGGGSGGGGSEVQLVQSGAEVKKPGESLKISCKGSGIDFNSNYYMCWVRQMPGKGLEWMGCIYVGSHVNTYYANWAKGQVTISADKSISTAYLQWSSLKASDTAMYYCATSGSSVLYFKFWGQGTLVTVSS | 0.239 nM | 0.000538 s⁻¹ | 2.25e+06 M⁻¹ s⁻¹ | 0.239 nM
15 | Vκ3/VH4 consensus (uncapped), human IL23R specific scFv (scFv, scFv VL-linker-VH, made in E. coli; Vκ framework IV (uncapped, full consensus); also called Vκ3VH4 uncapped) scFv: DIVLTQSPATLSLSPGERATLSCQASENIYSFLAWYQQKPGQAPRLLIYSASKLAAGVPARFSGSGSGTDFTLTISSLEPEDFAVYYCQQTNRYSNPDIYNVFGQGTKVEIKRGGGGSGGGGSGGGGSGGGGSQVQLQESGPGLVKPSETLSLTCTVSGIDFNSNYYMCWIRQPPGKGLEWIGCIYVGSHVNTYYANWAKGRVTISVDTSKNQFSLKLSSVTAADTAVYYCATSGSSVLYFKFWGQGTLVTVSS | 0.139 nM | 0.000263 s⁻¹ | 1.89e+06 M⁻¹ s⁻¹ | 0.139 nM
